The text below walks through data of article PMC9758440.

This experiment deals with N-terminal SNAP-tagged FGFR1c on the surface of stable COS7 cells (human) (UniProt P11362). Kind of experiment: FRET or BRET. For orientation: In BRET a luciferase serves as donor, and the signal depends on an acceptor being close.

On to “N-terminal SNAP-tagged FGFR1c on the surface of stable COS7 cells (from UniProt P11362 22-822) (receptor)”, for which the fold increase of the TR-FRET signal with FGF2 was 2.8 fold.
